Source: patent US20020152485A1 (BOSTON HEART FOUNDATION, published 2002)

Key:
[1] = biological target: T1, native human low density lipoprotein (LDL) (human, UniProt P04114 28-4563); assay: affinity coelectrophoresis (ACE): 125I-LBP-2 run through LDL cast in agarose; binding curve
T1 construct: This is a lipoprotein particle (protein plus lipid), not an isolated polypeptide; also called native LDL; cold LDL
Description: (§1) Analysis of the affinity and specificity of recombinant rabbit LBP-1, LBP-2 or LBP-3 binding to LDL was carried out using the principle of affinity electrophoresis (Lee and Lander, Proc. Natl. Acad. Sci. USA 88:2768-2772 (1991)). Melted agarose (1%; 65° C.) was prepared in 50 mM sodium MOPS, pH 7.0; 125 mM sodium acetate, 0.5% CHAPS. A teflon comb consisting of nine parallel bars (45×4×4 mm/3 mm spacing between bars) was placed onto GelBond film (FMC Bioproducts, Rockland, Me.) fitted to a plexiglass casting tray with the long axis of the bars parallel to the long axis of the casting tray. A teflon strip (66×1×1 mm) was placed on edge with the long axis parallel to the short axis of the casting tray, at a distance of 4 mm from the edge of the teflon comb. Melted agarose (>65° C.) was then poured to achieve a height of approximately 4 mm. […] LDL or HDL samples were prepared in gel buffer (50 mM sodium MOPS, pH 7.0, 125 mM sodium acetate) at twice the desired concentration. Samples were then mixed with an equal volume of melted agarose (in 50 mM MOPS, pH 7.0; 125 mM sodium acetate; 50° C.), pipetted into the appropriate rectangular wells and allowed to gel. The binding affinity and specificity of LBP-1 and LBP-3 was tested using several concentrations of LDL (540 to 14 nM) and HDL (2840177 nM). […]

[2] = biological target: T1, native human low density lipoprotein …; assay: affinity coelectrophoresis (ACE): 125I-LBP-3 run through LDL cast in agarose; binding curve
Description: as §1

T1 sequence (P04114 28-4563): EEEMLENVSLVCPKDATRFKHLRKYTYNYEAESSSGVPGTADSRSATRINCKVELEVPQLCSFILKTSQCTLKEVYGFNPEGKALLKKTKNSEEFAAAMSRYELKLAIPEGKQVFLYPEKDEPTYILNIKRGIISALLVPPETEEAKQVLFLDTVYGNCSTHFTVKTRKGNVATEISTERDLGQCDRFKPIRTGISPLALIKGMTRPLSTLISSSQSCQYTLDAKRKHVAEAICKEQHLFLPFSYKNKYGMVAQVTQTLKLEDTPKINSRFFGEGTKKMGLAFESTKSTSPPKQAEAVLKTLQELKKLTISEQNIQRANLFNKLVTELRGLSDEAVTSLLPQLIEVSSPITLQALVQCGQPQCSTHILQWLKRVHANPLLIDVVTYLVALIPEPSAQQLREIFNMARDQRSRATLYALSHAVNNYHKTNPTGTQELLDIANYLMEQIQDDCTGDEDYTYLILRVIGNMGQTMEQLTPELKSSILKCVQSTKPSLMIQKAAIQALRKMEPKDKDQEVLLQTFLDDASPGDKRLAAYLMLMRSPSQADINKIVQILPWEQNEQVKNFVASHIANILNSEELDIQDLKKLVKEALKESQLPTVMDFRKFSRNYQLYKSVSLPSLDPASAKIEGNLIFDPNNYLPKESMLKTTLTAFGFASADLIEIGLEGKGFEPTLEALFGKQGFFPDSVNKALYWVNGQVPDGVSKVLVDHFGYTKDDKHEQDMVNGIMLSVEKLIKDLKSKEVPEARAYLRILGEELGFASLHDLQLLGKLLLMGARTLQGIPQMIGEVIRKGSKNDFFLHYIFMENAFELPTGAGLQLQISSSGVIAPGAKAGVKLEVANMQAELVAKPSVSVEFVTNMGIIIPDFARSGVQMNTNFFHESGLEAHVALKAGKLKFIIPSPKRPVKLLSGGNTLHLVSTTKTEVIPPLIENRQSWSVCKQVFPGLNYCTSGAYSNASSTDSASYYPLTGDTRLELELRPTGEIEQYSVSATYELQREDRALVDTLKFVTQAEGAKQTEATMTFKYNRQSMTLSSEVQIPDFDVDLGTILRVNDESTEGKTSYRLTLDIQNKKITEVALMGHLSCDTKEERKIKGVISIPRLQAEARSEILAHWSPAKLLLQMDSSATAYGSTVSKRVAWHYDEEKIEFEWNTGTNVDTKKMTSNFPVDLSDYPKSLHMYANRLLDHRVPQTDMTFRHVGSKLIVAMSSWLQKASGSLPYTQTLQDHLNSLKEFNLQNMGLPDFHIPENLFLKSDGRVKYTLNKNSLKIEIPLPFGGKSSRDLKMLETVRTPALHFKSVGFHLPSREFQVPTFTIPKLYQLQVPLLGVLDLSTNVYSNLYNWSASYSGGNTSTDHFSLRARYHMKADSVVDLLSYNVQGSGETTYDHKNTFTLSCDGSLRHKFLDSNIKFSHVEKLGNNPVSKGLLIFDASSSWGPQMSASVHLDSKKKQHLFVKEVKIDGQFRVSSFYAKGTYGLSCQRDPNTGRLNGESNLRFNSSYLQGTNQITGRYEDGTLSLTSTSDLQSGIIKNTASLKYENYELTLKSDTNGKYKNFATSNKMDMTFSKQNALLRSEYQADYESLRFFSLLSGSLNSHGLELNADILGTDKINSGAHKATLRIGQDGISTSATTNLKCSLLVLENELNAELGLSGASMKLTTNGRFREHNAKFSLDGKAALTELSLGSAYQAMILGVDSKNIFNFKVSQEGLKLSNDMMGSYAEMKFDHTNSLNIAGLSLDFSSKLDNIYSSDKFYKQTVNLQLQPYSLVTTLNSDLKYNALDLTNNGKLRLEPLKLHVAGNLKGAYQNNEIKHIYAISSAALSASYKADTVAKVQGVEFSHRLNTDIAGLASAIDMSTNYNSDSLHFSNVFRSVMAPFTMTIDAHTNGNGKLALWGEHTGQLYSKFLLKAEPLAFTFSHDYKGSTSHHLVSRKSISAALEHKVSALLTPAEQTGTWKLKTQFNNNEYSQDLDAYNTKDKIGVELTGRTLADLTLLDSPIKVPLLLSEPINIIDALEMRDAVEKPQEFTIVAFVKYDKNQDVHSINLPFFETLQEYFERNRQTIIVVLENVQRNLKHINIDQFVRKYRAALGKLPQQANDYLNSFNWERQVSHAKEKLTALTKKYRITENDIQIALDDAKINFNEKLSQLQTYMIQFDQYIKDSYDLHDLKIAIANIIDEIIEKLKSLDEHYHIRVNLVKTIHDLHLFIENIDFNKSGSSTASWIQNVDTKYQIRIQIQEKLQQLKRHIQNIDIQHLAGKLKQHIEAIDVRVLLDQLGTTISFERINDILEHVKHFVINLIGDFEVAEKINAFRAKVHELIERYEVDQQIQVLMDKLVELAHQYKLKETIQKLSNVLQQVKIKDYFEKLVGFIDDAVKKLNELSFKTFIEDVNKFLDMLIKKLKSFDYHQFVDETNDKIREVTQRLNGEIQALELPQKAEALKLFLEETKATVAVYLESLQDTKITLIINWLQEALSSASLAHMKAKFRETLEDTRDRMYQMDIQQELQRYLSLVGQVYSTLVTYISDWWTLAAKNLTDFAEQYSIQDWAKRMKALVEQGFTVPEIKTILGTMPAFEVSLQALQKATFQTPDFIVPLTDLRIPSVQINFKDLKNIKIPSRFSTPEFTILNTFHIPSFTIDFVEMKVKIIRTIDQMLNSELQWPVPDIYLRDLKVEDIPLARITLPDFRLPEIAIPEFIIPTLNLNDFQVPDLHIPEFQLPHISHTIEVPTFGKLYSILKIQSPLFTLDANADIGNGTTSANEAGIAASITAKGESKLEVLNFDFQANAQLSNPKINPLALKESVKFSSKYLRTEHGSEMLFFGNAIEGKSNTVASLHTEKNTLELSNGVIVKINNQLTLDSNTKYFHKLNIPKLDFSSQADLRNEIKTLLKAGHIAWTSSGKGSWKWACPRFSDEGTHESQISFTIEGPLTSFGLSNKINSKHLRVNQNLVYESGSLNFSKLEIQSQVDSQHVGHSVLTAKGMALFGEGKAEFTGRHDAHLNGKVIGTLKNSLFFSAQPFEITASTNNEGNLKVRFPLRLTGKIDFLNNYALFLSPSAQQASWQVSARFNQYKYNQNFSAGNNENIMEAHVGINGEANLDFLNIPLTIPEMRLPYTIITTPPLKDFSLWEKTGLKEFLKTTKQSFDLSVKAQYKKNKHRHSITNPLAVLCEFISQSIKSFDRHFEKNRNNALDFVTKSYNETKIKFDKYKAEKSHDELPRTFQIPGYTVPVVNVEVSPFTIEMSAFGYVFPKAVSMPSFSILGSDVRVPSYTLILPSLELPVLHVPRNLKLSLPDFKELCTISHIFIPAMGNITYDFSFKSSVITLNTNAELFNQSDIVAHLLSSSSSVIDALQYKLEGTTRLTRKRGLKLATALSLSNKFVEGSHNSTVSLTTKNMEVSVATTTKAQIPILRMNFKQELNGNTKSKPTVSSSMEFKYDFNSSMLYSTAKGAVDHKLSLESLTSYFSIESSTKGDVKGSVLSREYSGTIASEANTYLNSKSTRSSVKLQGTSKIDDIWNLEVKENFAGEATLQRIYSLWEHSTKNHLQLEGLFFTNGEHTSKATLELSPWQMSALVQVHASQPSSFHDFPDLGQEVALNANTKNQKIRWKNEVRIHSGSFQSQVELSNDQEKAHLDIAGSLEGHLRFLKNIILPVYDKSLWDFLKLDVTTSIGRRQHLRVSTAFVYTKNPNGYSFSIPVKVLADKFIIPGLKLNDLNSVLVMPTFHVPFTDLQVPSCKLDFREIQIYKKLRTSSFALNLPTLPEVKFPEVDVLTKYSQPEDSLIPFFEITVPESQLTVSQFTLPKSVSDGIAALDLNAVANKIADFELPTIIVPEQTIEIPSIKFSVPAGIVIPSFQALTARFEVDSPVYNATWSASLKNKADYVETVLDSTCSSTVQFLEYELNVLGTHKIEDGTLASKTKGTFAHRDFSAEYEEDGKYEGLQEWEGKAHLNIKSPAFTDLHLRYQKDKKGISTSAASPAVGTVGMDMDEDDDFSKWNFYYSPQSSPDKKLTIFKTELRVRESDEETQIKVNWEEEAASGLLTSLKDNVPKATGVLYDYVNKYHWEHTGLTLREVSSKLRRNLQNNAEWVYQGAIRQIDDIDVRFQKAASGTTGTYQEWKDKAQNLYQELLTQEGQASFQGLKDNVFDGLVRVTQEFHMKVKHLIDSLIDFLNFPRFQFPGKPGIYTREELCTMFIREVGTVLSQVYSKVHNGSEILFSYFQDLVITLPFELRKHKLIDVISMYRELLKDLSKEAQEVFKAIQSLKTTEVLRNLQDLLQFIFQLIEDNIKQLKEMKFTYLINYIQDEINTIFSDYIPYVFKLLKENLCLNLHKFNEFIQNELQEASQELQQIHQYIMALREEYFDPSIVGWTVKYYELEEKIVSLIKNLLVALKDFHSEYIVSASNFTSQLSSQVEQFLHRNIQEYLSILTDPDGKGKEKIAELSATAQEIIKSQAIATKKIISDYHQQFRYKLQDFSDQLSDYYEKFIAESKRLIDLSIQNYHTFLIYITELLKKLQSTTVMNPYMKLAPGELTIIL

B1: recombinant rabbit LBP-2 clone 26 (6-His tag) (other)
chain: PPPPQQPQPPPEGGAARAGGPARPVSLREVVRYLGGSSGAGGRLTRGRVQGLLEEEAAARGRLERTRLGALALPRGDRPGRAPPAASARAARNKRAGEERVLEKEEEEEEEEDDEDDDDDVVSEGSEVPESDRPAGAQHHQLNGGERGPQTAKERAKEWSLCGPHPGQEEGRGPAAGSGTRQVFSMAALSKEGGSASSTTGPDSPSPVPLPPGKPALPGADGTPFGCPAGRKEKPADPVEWTVMDVVEYFTEAGFPEQATAFQEQEIDGKSLLLMQRTDVLTGLSIRLGPALKIYEHHIKVLQQGHFEDDDPEGFLG
modifications: 125I-iodinated (Iodobeads) where used as the radiolabeled species in ACE assays
notes: Clone 26 contains the acidic region, residues 338-365; also called LBP-2 (rabbit clone 26); clone 26 derived LBP-2; not shown: N-terminal 6-histidine tag from the pPROEX-HT vector
- Kd [1]: 100 nM

B2: recombinant rabbit LBP-3 (6-His tag) (other)
chain: MKNQDKKNGAAKQPNPKSSPGQPEAGAEGAQGRPGRPAPAREAEGASSQAPGRPEGAQAKTAQPGALCDVSEELSRQLEDILSTYCVDNNQGAPGEDGVQGEPPEPEDAEKSRAYVARNGEPEPGTPVVNGEKETSKAEPGTEEIRTSDEVGDRDHRRPQEKKKAKGLGKEITLLMQTLNTLSTPEEKLAALCKKYAELLEEHRNSQKQMKLLQKKQSQLVQEKDHLRGEHSKAILARSKLESLCRELQRHNRSLKEEGVQRAREEEEKRKEVTSHFQMTLNDIQLQMEQHNERNSKLRQENMELAERLKKLIEQYELREEHIDKVFKHKDLQQQLVDAKLQQAQEMLKEAEERHQREKDFLLKEAVESQRMCELMKQQETHLKQQLALYTEKFEEFQNTLSKSSEVFTTFKQEMEKMTKKIKKLEKETTMYRSRWESSNKALLEMAEEKTLRDKELEGLQVKIQRLEKLCRALQTERNDLNKRVQDLSAGGQGPVSDSGPERRPEPATTSKEQGVEGPGAQVPNSPRATDASCCAGAPSTEASGQTGPQEPTTATA
modifications: 125I-iodinated (Iodobeads) where used as the radiolabeled species in ACE assays
notes: also called LBP-3 (80 kDa fragment); rabbit recombinant LBP-3; not shown: N-terminal 6-histidine tag from the pPROEX-HT vector
- Kd [2]: 333 nM
